Positions count from the first letter of the chain named. In names and notes the source's numbering stands.
B1: Rab8a_(1-176) (natural protein)
chain: MAKTYDYLFKLLLIGDSGVGKTCVLFRFSEDAFNSTFISTIGIDFKIRTIELDGKRIKLQIWDTAGQERFRTITTAYYRGAMGIMLVYDITNEKSFDNIRNWIRNIEEHASADVEKMILGNKCDVNDKRQVSKERGEKLALDYGIKFMETSAKANINVENAFFTLARDIKAKMDKK
B2: bMERB_(V978A) (domain or fragment)
chain: KEEEMKRFCKAQTIQRRLNEIEAALRELEAEGVKLELALRRQSSSPEQQKKLWVGQLLQLADKKNSLVAEEAELMITVQELNLEEKQWQLDQELRGYMNREENLKTAADRQAEDQVLRKLVDLVNQRDALIRFQEERRLSELALGTGAQG
B3: bMERB_(S960D) (domain or fragment)
chain: B2 chain with S43D, A61V
B4: bMERB_(V978A_V985A) (domain or fragment)
chain: B2 chain with V68A

Legend:
bMERB_(M992A_I993A) = target: T1, bMERB_(M992A_I993A) (human, UniProt Q8TDZ2 918-1067, M992A | I993A); assay: ITC
T1 sequence: B2 chain with A61V, M75A, I76A

[1] = target: T2, Mical1 bMERB domain (residues 918-1067) (human, UniProt Q8TDZ2 918-1067); assay: ITC
T2 sequence: B2 chain with A61V

bMERB_(V978A_V985A) = target: B4; assay: ITC
bMERB_(L1047A_F1050A) = target: T3, bMERB_(L1047A_F1050A) (human, UniProt Q8TDZ2 918-1067, L1047A | F1050A); assay: ITC
T3 sequence: B2 chain with A61V, L130A, F133A

full-length Mical1 = target: T4, full-length Mical1 (human, UniProt Q8TDZ2 1-1067); assay: ITC
T4 sequence: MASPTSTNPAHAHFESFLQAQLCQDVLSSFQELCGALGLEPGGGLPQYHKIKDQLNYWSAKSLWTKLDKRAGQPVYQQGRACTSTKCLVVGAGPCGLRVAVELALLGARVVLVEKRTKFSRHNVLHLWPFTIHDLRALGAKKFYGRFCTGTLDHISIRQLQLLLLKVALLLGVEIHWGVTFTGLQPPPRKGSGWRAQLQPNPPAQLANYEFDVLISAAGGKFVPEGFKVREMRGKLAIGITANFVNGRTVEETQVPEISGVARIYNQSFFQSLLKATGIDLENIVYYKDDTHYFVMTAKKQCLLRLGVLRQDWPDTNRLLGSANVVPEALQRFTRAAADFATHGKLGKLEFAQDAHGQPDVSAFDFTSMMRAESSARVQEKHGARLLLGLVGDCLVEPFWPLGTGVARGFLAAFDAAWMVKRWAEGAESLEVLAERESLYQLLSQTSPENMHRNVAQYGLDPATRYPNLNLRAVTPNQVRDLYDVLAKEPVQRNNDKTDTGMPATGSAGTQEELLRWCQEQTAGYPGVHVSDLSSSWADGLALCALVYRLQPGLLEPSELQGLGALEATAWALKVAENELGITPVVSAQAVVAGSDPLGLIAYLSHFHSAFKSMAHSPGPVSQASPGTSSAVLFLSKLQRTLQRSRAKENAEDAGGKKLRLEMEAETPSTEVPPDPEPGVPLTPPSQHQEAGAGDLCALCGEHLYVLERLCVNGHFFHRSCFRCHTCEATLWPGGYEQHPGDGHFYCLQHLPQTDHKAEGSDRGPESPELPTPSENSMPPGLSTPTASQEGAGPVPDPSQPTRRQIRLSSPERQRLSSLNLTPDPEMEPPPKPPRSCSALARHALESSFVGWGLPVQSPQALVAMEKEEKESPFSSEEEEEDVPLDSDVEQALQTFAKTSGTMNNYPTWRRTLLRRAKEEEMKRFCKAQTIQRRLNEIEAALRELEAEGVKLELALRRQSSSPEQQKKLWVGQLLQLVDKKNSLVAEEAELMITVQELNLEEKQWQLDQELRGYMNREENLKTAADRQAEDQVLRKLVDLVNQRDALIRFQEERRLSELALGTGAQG

Rab8a_(1-176) [2] = target: B1; assay: ITC
Rab10_(1-175) [3] = target: T5, Rab10_(1-175) (human, UniProt P61026 1-175); assay: crystal structure
T5 sequence: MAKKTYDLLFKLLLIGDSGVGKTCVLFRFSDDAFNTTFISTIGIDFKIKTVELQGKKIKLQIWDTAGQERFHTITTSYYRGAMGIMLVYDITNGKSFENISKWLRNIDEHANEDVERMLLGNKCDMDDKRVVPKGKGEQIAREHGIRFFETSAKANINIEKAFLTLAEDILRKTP

[4] = target: T6, Mical1 MO-CH-LIM (residues 1-781) (human, UniProt Q8TDZ2 1-781); assay: ITC
T6 sequence: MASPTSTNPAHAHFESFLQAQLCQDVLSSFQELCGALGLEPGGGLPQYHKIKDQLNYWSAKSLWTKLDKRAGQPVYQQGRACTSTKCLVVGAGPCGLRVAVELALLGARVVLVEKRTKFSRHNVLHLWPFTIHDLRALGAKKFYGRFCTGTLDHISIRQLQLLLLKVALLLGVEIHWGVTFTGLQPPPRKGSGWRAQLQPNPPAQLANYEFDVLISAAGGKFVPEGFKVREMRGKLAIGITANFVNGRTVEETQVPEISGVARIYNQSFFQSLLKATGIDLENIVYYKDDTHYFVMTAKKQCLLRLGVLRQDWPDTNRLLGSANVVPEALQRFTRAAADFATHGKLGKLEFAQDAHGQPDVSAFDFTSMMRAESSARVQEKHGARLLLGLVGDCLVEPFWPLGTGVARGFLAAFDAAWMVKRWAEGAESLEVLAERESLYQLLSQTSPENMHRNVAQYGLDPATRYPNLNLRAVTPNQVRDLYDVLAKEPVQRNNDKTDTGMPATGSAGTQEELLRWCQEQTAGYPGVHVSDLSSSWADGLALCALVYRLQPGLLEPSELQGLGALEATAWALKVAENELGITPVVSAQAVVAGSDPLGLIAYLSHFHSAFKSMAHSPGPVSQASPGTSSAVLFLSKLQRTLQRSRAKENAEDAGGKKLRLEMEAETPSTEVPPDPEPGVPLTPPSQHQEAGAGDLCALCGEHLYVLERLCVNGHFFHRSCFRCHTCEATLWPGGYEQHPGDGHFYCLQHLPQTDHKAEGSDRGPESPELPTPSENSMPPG

Rab10_(1-175) [5] = target: T5, Rab10_(1-175); assay: ITC
Rab15_(1-176) [6] = target: T7, Rab15_(1-176) (human, UniProt P59190 1-176); assay: ITC
T7 sequence: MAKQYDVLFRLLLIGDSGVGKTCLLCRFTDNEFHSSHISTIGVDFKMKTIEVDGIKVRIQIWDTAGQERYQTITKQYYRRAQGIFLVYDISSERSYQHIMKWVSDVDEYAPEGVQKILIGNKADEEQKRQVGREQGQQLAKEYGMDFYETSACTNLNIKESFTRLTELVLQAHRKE

Rab10_(1-175) [7] = target: T5, Rab10_(1-175); assay: SEC
Rab15_(1-176) [8] = target: T7, Rab15_(1-176); assay: SEC
Rab8a_(1-176) [9] = target: B1; assay: SEC
Rab13_(1-176) = target: T8, Rab13_(1-176) (human, UniProt P51153 1-176); assay: SEC
T8 sequence: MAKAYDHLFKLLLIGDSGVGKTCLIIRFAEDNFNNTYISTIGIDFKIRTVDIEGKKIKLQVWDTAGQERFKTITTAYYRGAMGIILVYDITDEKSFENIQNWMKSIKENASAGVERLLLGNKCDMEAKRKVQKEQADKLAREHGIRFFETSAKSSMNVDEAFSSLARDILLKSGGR

B1
fold decrease in N-terminal (Nt-RBS1) Rab binding against wild-type bMERB (bMERB_(M992A_I993A)): > 30 fold
stoichiometry N [1]: 2
stoichiometry N (bMERB_(V978A_V985A)): 1
fold decrease in C-terminal (Ct-RBS2) Rab8 binding against wild-type bMERB (bMERB_(L1047A_F1050A)): > 20 fold
fold decrease in N-terminal (Nt-RBS1) Rab binding against wild-type bMERB (bMERB_(L1047A_F1050A)): 10 fold
stoichiometry N (full-length Mical1): 2

B2
binding result (Rab8a_(1-176) [2]): binds
binding result (Rab10_(1-175) [3]): binds
fold reduction in affinity against wild-type bMERB [4]: 2 fold

B3
binding result (Rab10_(1-175) [5]): binds
binding result (Rab15_(1-176) [6]): binds
binding result (Rab8a_(1-176) [2]): binds
binding result [4]: binds

B4
binding result (Rab10_(1-175) [7]): binds
binding result (Rab15_(1-176) [8]): binds
binding result (Rab8a_(1-176) [9]): binds
binding result (Rab13_(1-176)): binds

Reference: article doi:10.1101/2024.06.17.599268 (bioRxiv, 2024)
